Data as given in patent publication US20030124119A1 (published 2003).

How the values were obtained:
human PTHrP (1-34) [1] = target: T1, human PTHrP (1-34) (human); experiment: ELISA, plate coated with 1 µg/ml human PTHrP (1-34)
T1 construct: Coated on ELISA plates (Peptide Research Institute) and used in RIA screening and the cAMP assay
Experimental: An ELISA plate for the determination of antigen-binding ability was prepared as follows. Each well of a 96-well ELISA plate was coated with 100 μl of a coating buffer supplemented with 1 μg/ml of human PTHrP (1-34) (Peptide Research Institute), and then blocked with 200 μl of a dilution buffer. Each well was added with each of the serial dilutions of the COS-7 cell culture supernatant in which each of the chimeric antibodies had been expressed, or added with each of the serial dilutions of each of the chimeric antibodies per se in a purified form. After the plate was incubated at room temperature and washed with PBS-Tween 20, each well of the plate was added with 100 μl of a solution of alkaline phosphatase-conjugated goat anti-human IgG antibodies (TAGO). After the plate was incubated at room temperature and washed with PBS-Tween 20, each well of the plate was added with 1 mg/ml of a substrate solution (“Sigma 104”, p-nitrophenylphosphoric acid, SIGMA). The solution was measured on its absorbance at 405 nm using Microplate Reader (Bio Rad).
An ELISA plate for determining antigen-binding ability was prepared as follows. Each well of a 96-well ELISA plate (Maxisorp, NUNC) was coated with 100 μl of a coating buffer containing 1 μg/ml of human PTHrP (1-34) and then blocked with 200 μl of a dilution buffer. Subsequently, each well was added with each of the serial dilutions of the COS-7 cell culture supernatant in which each of the hybrid antibodies and humanized antibodies was expressed, or added with each of the serial dilutions of each of the hybrid antibodies and humanized antibodies in a purified form. The plate was incubated at room temperature and washed with PBS-Tween 20. Subsequently, each well was added with 100 μl of alkaline phosphatase-conjugated goat anti-human IgG antibody (TAGO). The plate was incubated at room temperature and washed with PBS-Tween 20. Subsequently, each well was added with 1 mg/ml of a substrate solution (“Sigma 104”, p-nitrophenylphosphoric acid, SIGMA). The solution was measured on its absorbance at 405 nm using Microplate Reader (Bio Rad).

human PTHrP (1-34) [2] = target: T1, human PTHrP (1-34); experiment: solid phase RIA of hybridoma culture supernatants
Experimental: The screening of hybridomas was performed by determining the presence of PTHrP-recognition antibodies in the culture supernatant of the wells in which cell growth had been observed in HAT medium, by solid phase RIA method. The hybridomas were collected from the wells in which the binding ability to the PTHrP-recognition antibodies had been confirmed. The hybridomas thus obtained was suspended into RPMI-1640 medium containing 15% FCS supplemented with OPI-supplement (Sigma), followed by unification of the hybridomas by limiting dilution method.

| Binder | binding result (human PTHrP (1-34) [1]) | binding result (human PTHrP (1-34) [2]) |
| --- | --- | --- |
| humanized #23-57-137-1 antibody having L-chain version “s” (H-chain version “a”) (antibody, V domains shown, also called hMBC1Lsλ) VH: QVQLVESGGGVVQPGRSLRLSCAASGFTFSSYGMSWVRQAPGKGLEWVATISSGGSYTYYPDSVKGRFTISRDNSKNTLYLQMNSLRAEDTAVYYCARQTTMTYFAYWGQGTLVTVSS VL: QLVLTQSPSASASLGASVKLTCTLSSQHSTYTIEWYQQQPEKGPKYVMDLKQDGSHSTGDGIPDRFSGSSSGAERYLTISSLQSEDEADYICGVGDTIKEQFVYVFGGGTKLTVLG | binds |  |
| mouse FR1,2/human FR3,4 hybrid antibody (L-chain m/hMBC1Ldλ, H-chain hMBC1HcDNA) (antibody, V domains shown, Human Cγ1 and human λ C-regions) VH: QVQLVESGGGVVQPGRSLRLSCAASGFTFSSYGMSWVRQAPGKGLEWVATISSGGSYTYYPDSVKGRFTISRDNSKNTLYLQMNSLRAEDTAVYYCARQTTMTYFAYWGQGTLVTVSS VL: QLVLTQSSSASFSLGASAKLTCTLSSQHSTYTIEWYQQQPLKPPKYVMDLKQDGSHSTGDGIPDRFSGSSSGAERYLTISSLQSEDEADYICGVGDTIKEQFVYVFGGGTKLTVL | binds |  |
| humanized #23-57-137-1 antibody having L-chain version “t” (H-chain version “a”) (antibody, V domains shown, Human Cγ1 and human λ C-regions; also called hMBC1Ltλ) VH: QVQLVESGGGVVQPGRSLRLSCAASGFTFSSYGMSWVRQAPGKGLEWVATISSGGSYTYYPDSVKGRFTISRDNSKNTLYLQMNSLRAEDTAVYYCARQTTMTYFAYWGQGTLVTVSS VL: QLVLTQSPSASASLGASVKLTCTLSSQHSTYTIEWYQQQPEKGPRYVMDLKQDGSHSTGDGIPDRFSGSSSGAERYLTISSLQSEDEADYICGVGDTIKEQFVYVFGGGTKLTVLG | binds |  |
| humanized #23-57-137-1 antibody having L-chain version “q” (H-chain version “a”) (antibody, V domains shown, Human Cγ1 and human λ C-regions; also called hMBC1Lqλ) VH: QVQLVESGGGVVQPGRSLRLSCAASGFTFSSYGMSWVRQAPGKGLEWVATISSGGSYTYYPDSVKGRFTISRDNSKNTLYLQMNSLRAEDTAVYYCARQTTMTYFAYWGQGTLVTVSS VL: QLVLTQSPSASASLGASVKLTCTLSSQHSTYTIEWYQQQPEKGPKYLMDLKQDGSHSTGDGIPDRFSGSSSGAERYLTISSLQSEDEADYICGVGDTIKEQFVYVFGGGTKLTVLG | binds |  |
| human FR1/mouse FR2,3,4 hybrid antibody (L-chain hmmMBC1L(λ), H-chain hMBC1HcDNA) (antibody, V domains shown, Human Cγ1 and human λ C-regions; also called FR1/FR2 hybrid antibody) VH: QVQLVESGGGVVQPGRSLRLSCAASGFTFSSYGMSWVRQAPGKGLEWVATISSGGSYTYYPDSVKGRFTISRDNSKNTLYLQMNSLRAEDTAVYYCARQTTMTYFAYWGQGTLVTVSS VL: QLVLTQSPSASASLGASVKLTCTLSSQHSTYTIEWYQQQPLKPPKYVMDLKQDGSHSTGDGIPDRFSGSSSGADRYLSISNIQPEDEAMYICGVGDTIKEQFVYVFGGGTKVTVL | binds |  |
| humanized #23-57-137-1 antibody having L-chain version “o” (H-chain version “a”) (antibody, V domains shown, Human Cγ1 and human λ C-regions; also called hMBC1Loλ) VH: QVQLVESGGGVVQPGRSLRLSCAASGFTFSSYGMSWVRQAPGKGLEWVATISSGGSYTYYPDSVKGRFTISRDNSKNTLYLQMNSLRAEDTAVYYCARQTTMTYFAYWGQGTLVTVSS VL: QLVLTQSPSASASLGASVKLTCTLSSQHSTYTIEWYQQQPEKGPRYVMDLKQDGSHSTGDGIPDRFSGSSSGAERYLTISSLQSEDEADYYCGVGDTIKEQFVYVFGGGTKLTVLG | binds |  |
| humanized #23-57-137-1 antibody having L-chain version “l” (H-chain version “a”) (antibody, V domains shown, Human Cγ1 and human λ C-regions; also called hMBC1Llλ) VH: QVQLVESGGGVVQPGRSLRLSCAASGFTFSSYGMSWVRQAPGKGLEWVATISSGGSYTYYPDSVKGRFTISRDNSKNTLYLQMNSLRAEDTAVYYCARQTTMTYFAYWGQGTLVTVSS VL: QLVLTQSPSASASLGASVKLTCTLSSQHSTYTIEWYQQQPEKGPKYVMDLKQDGSHSTGDGIPDRFSGSSSGAERYLTISSLQSEDEADYYCGVGDTIKEQFVYVFGGGTKLTVLG | binds |  |
| mouse FR1,2/human FR3,4 hybrid antibody (L-chain m/hMBC1Laλ, H-chain hMBC1HcDNA) (antibody, V domains shown, Human Cγ1 and human λ C-regions) VH: QVQLVESGGGVVQPGRSLRLSCAASGFTFSSYGMSWVRQAPGKGLEWVATISSGGSYTYYPDSVKGRFTISRDNSKNTLYLQMNSLRAEDTAVYYCARQTTMTYFAYWGQGTLVTVSS VL: QLVLTQSSSASFSLGASAKLTCTLSSQHSTYTIEWYQQQPLKPPKYVMDLKQDGSHSTGDGIPDRFSGSSSGAERYLTISSLQSEDEADYYCGVGDTIKEQFVYVFGGGTKLTVL | binds |  |

The remaining lines, values ahead:

| binding result (human PTHrP (1-34) [1]) | binding result (human PTHrP (1-34) [2]) | Binder |
| --- | --- | --- |
| binds |  | humanized #23-57-137-1 antibody having L-chain version “r” (H-chain version “a”) (antibody, V domains shown, also called hMBC1Lrλ) VH: QVQLVESGGGVVQPGRSLRLSCAASGFTFSSYGMSWVRQAPGKGLEWVATISSGGSYTYYPDSVKGRFTISRDNSKNTLYLQMNSLRAEDTAVYYCARQTTMTYFAYWGQGTLVTVSS VL: QLVLTQSPSASASLGASVKLTCTLSSQHSTYTIEWYQQQPEKGPRYLMDLKQDGSHSTGDGIPDRFSGSSSGAERYLTISSLQSEDEADYICGVGDTIKEQFVYVFGGGTKLTVLG |
| binds |  | humanized #23-57-137-1 antibody having L-chain version “j” (H-chain version “a”) (antibody, V domains shown, Human Cγ1 and human λ C-regions; also called hMBC1Ljλ) VH: QVQLVESGGGVVQPGRSLRLSCAASGFTFSSYGMSWVRQAPGKGLEWVATISSGGSYTYYPDSVKGRFTISRDNSKNTLYLQMNSLRAEDTAVYYCARQTTMTYFAYWGQGTLVTVSS VL: QLVLTQSPSASASLGASVKLTCTLSSQHSTYTIEWYQQQPEKGPKYLMDLKQDGSHSTGDGIPDRFSGSSSGAERYLTISSLQSEDEADYYCGVGDTIKEQFVYVFGGGTKLTVLG |
| binds |  | humanized #23-57-137-1 antibody having L-chain version “m” (H-chain version “a”) (antibody, V domains shown, Human Cγ1 and human λ C-regions; also called hMBC1Lmλ) VH: QVQLVESGGGVVQPGRSLRLSCAASGFTFSSYGMSWVRQAPGKGLEWVATISSGGSYTYYPDSVKGRFTISRDNSKNTLYLQMNSLRAEDTAVYYCARQTTMTYFAYWGQGTLVTVSS VL: QLVLTQSPSASASLGASVKLTCTLSSQHSTYTIEWYQQQPEKGPRYLMDLKQDGSHSTGDGIPDRFSGSSSGAERYLTISSLQSEDEADYYCGVGDTIKEQFVYVFGGGTKLTVLG |
| binds |  | antibody having both a humanized H-chain version “a” and a chimeric L-chain (antibody, V domains shown, Human Cγ1 H-chain C-region) VH: QVQLVESGGGVVQPGRSLRLSCAASGFTFSSYGMSWVRQAPGKGLEWVATISSGGSYTYYPDSVKGRFTISRDNSKNTLYLQMNSLRAEDTAVYYCARQTTMTYFAYWGQGTLVTVSS VL: QLVLTQSSSASFSLGASAKLTCTLSSQHSTYTIEWYQQQPLKPPKYVMDLKQDGSHSTGDGIPDRFSGSSSGADRYLSISNIQPEDEAMYICGVGDTIKEQFVYVFGGGTKVTVLG |
|  | binds | mouse monoclonal antibody #23-57-137-1 against human PTHrP (1-34) (antibody, V domains shown, Mouse antibody from the hybridoma (FERM BP-5631); mouse λ L-chain; tested as hybridoma culture supernatant) VH: EVQLVESGGDLVKPGGSLKLSCAASGFTFSSYGMSWIRQTPDKRLEWVATISSGGSYTYYPDSVKGRFTISRDNAKNTLYLQMSSLKSEDTAMFYCARQTTMTYFAYWGQGTLVTVSA VL: QLVLTQSSSASFSLGASAKLTCTLSSQHSTYTIEWYQQQPLKPPKYVMDLKQDGSHSTGDGIPDRFSGSSSGADRYLSISNIQPEDEAMYICGVGDTIKEQFVYVFGGGTKVTVLG |
| binds |  | chimeric #23-57-137-1 antibody with L-chain κ chain C-region (antibody, V domains shown, Mouse V-regions with human Cγ1 H-chain C-region and human κ C-region; expressed in COS-7 cells; also called chimeric antibody; MBC1HcDNA/pCOS1 and MBC1L(κ)/neo) VH: EVQLVESGGDLVKPGGSLKLSCAASGFTFSSYGMSWIRQTPDKRLEWVATISSGGSYTYYPDSVKGRFTISRDNAKNTLYLQMSSLKSEDTAMFYCARQTTMTYFAYWGQGTLVTVSA VL: QLVLTQSSSASFSLGASAKLTCTLSSQHSTYTIEWYQQQPLKPPKYVMDLKQDGSHSTGDGIPDRFSGSSSGADRYLSISNIQPEDEAMYICGVGDTIKEQFVYVFGGGTKVTVLG |
| binds |  | chimeric #23-57-137-1 antibody with L-chain λ chain C-region (antibody, V domains shown, expressed in COS-7 cells; also called chimeric antibody; MBC1HcDNA/pCOS1 and MBC1L(λ)/neo) VH: EVQLVESGGDLVKPGGSLKLSCAASGFTFSSYGMSWIRQTPDKRLEWVATISSGGSYTYYPDSVKGRFTISRDNAKNTLYLQMSSLKSEDTAMFYCARQTTMTYFAYWGQGTLVTVSA VL: QLVLTQSSSASFSLGASAKLTCTLSSQHSTYTIEWYQQQPLKPPKYVMDLKQDGSHSTGDGIPDRFSGSSSGADRYLSISNIQPEDEAMYICGVGDTIKEQFVYVFGGGTKVTVLG |
